Measurements taken from the supplement of paper PMC12042874.
± gives the uncertainty stated by the source.

Test: amyloid nucleation score (Sup35N fusion, yeast selection) (log enrichment); library NNK3; higher = more nucleation; inactive = no reads after selection
Outline: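 Peptides of 20 random codons fused to Sup35N were expressed in psi-negative yeast, induced 24 hours with 100 μM copper sulfate, then grown 7 days at 30°C on medium lacking adenine and uracil. Input and output plasmid inserts were Illumina-sequenced. Nucleation score is the DiMSum log enrichment of output over input reads, centred on the mode score of non-aggregating sequences, excluding sequences with under 100 input reads. Random libraries had three technical output replicates.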

Row | Substance | amyloid nucleation score
1 | AAIYYLSRAECNFSRYKNYL | inactive
2 | VTLLWFISPFMMHWWVQRNG | -0.191 ± 1
3 | VGRYPSLVSLNDTCNDVTRI | inactive
4 | AHGEMRAVKPINFKACWRCL | inactive
5 | NLVLCN | inactive
6 | TGIYAF | inactive
7 | TVYIAYTCVAVRSHSEHLFD | inactive
8 | LHIVNCCQPKHTRFVFQWYW | 1.89 ± 0.1
9 | RHCGRALCDWLVIRWGSGYT | inactive
10 | VVWNMYKFKACWYRDVTPLF | inactive
11 | GWVFTMDFTSYLECTDMGRS | inactive
12 | YIHIY | inactive
13 | WHSKKLRICHLGCFVQTDWV | inactive
14 | NTYDAVISIACVSHQSICST | inactive
15 | RCLGLML | inactive
16 | YLDVPTCDLSMPCYDINNNL | inactive
17 | RRWCLVAIIPIELNAGTEQH | inactive
18 | YFGYRLLAAERSSERVICFK | -0.352 ± 0.75
19 | SGGVFCYQGSPGVVY | inactive
20 | EIVRRSSVISCHRT | inactive
21 | SNLVPMQCVIL | inactive
22 | FFKICFRAKYIGNLSPLLK | inactive
23 | WKSPVYAYVWNSGPFRRQGK | inactive
24 | IGWYYSYITRKSENWVLVAL | inactive
25 | GKVATHSIHDYFELSMTKGC | inactive
26 | SMGLFDTQFVGELHVASRLF | inactive
27 | FLFWILDALLLQVFQLSPHK | inactive

Row | Substance | amyloid nucleation score
28 | STVYSRHIKTDLTNCCKFFY | -0.657 ± 0.98
29 | RCYKMLDLSILDIRYIVMLR | inactive
30 | NDHPVNSWPVGYSADINQVL | inactive
31 | RGMWSFHGYWRTGKYMATGG | inactive
32 | GTKWSATITGWV | inactive
33 | NAFWAILVGPIDPEVSGTYG | inactive
34 | DMSHMIEICFVTNYTKGYVT | inactive
35 | HSDILRFCLMVNKDTVHSVL | inactive
36 | VGKYAGCCLKRPSLDAMGHV | inactive
37 | HTRLAPWSMDEGRAV | inactive
38 | YLPFFEWRVQGRVFEVSMYY | inactive
39 | GDGAYS | inactive
40 | ALGTSEGRLQLSYDNHGVVL | inactive
41 | TRILGYIFGAVSIVWLGVER | inactive
42 | TFRFLSRLSRTLWAFSKGLC | inactive
43 | ASVYTN | inactive
44 | KSERLNLVGILVSLVRPVCL | inactive
45 | IYIGQFSLVVCVIIDIDI | 1.75 ± 0.11
46 | PATVNRSWNFGIRFNGARNN | -0.404 ± 0.8
47 | GLLVTTPMLKLNYFNVLDLG | 0.99 ± 0.1
48 | DIYSDWLFIVLRHLVIRVLS | 0.754 ± 0.12
49 | IPVCAWRWSG | inactive
50 | NHDIDALTQTQPTDNSYL | inactive
51 | SLLCKFIVRNPNSSLIRSAS | inactive
52 | TKCNDYFNVSRYSSLDS | inactive
53 | APAKTYIACC | inactive
54 | PWLLVIIVLFGLYCRM | inactive

Row | Substance | amyloid nucleation score
55 | FYVASFWYYPKSEHNGA | inactive
56 | DSSLIAGPHVVCSWGLKNFS | inactive
57 | TVTWFDINCMVGFLY | 0.431 ± 0.68
58 | QEWVRYYYFVLYFNYVNGSW | inactive
59 | IEDAMVFLGTNSQTICLFNV | inactive
60 | LNGASADRRDWAEWLKADHC | inactive
61 | LTYHLFYMVADACVIWYDCS | 0.833 ± 0.32
62 | VVMYIRANPTDIYSYTLQPR | 1.56 ± 0.12
63 | ICSYTSVYSRKW | 0.404 ± 0.35
64 | TRHIGVGRY | inactive
65 | LSISIMWCFIFGYIFMCSRC | inactive
66 | NRRVCYSLISMGIVLVCRYG | 0.306 ± 0.22
67 | VPTMMRVR | inactive
68 | TVMPIYQCSIGVKFSCDSAK | 1.53 ± 0.072
69 | TAALRIDDQRKAYLGVPRFS | inactive
70 | YAVYRTPFVSKLAMFQLVQ | -1.04 ± 1.9
71 | IVISEALVFASGYKQVFNSV | inactive
72 | AVCPSISTLSCGQ | -0.055 ± 0.82
73 | ACLLKSYFSRYNEKPTCYVT | inactive
74 | ELIDKLVT | inactive
75 | CVIPRQIYWWCYRSTGRLIL | inactive
76 | TVTGFTCNGCFHAVNSVVLT | 0.002 ± 0.8
77 | GCNGDRFRF | -0.255 ± 0.88
78 | GNVMSRRDTLWIVIYVRFRH | inactive
79 | LFKMSV | inactive
80 | FVSPYRNHVGVGSDADWGFR | inactive
